Measurements taken from the supplement of paper PMC9112550, “Optimization of the antimicrobial peptide Bac7 by deep mutational scanning” (BMC Biology, 2022).

Tested on: Escherichia coli TOP10
Assay: shrunken log2 fold change of peptide-encoding DNA abundance (4.5 h post-induction vs induction); higher = less antimicrobial activity (less host growth inhibition)
Conditions: time post-induction: 4.5 h; library: site-saturation at positions 5, 18, 19, 20
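Also: peptides expressed intracellularly from a pBAD plasmid library in pooled LB shake-flask culture, induced with 0.3% L-arabinose, DNA abundance read by NGS, three biological replicates, DESeq2 with apeglm shrinkage.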

RRIRCRPPRLPRPRPRPTLPPRP
shrunken log2 fold change: 0.356

RRIRLRPPRLPRPRPRPDMAPRP
shrunken log2 fold change: 0.0097

RRIRYRPPRLPRPRPRPYEGPRP
shrunken log2 fold change: -0.00776

RRIRQRPPRLPRPRPRPPVCPRP
shrunken log2 fold change: -0.0828

RRIRARPPRLPRPRPRPGNQPRP
shrunken log2 fold change: -0.0242

RRIRFRPPRLPRPRPRPACEPRP
shrunken log2 fold change: -0.0985

RRIRVRPPRLPRPRPRPNRGPRP
shrunken log2 fold change: 0.108

RRIRGRPPRLPRPRPRPYRDPRP
shrunken log2 fold change: 0.528

RRIRERPPRLPRPRPRPGMGPRP
shrunken log2 fold change: -0.0461

RRIRWRPPRLPRPRPRPRQTPRP
shrunken log2 fold change: 0.0702

RRIRNRPPRLPRPRPRPLTNPRP
shrunken log2 fold change: 0.00172

RRIRPRPPRLPRPRPRPLNQPRP
shrunken log2 fold change: -0.217

RRIRHRPPRLPRPRPRPTEPPRP
shrunken log2 fold change: 0.0484

RRIRARPPRLPRPRPRPGGRPRP
shrunken log2 fold change: 0.525

RRIRLRPPRLPRPRPRPTCWPRP
shrunken log2 fold change: 0.393

RRIRIRPPRLPRPRPRPRGIPRP
shrunken log2 fold change: -0.0459

RRIRDRPPRLPRPRPRPGMSPRP
shrunken log2 fold change: 0.0134

RRIRWRPPRLPRPRPRPFDEPRP
shrunken log2 fold change: 0.129

RRIRKRPPRLPRPRPRPYIHPRP
shrunken log2 fold change: -0.227

RRIRQRPPRLPRPRPRPGYMPRP
shrunken log2 fold change: -0.131

RRIRDRPPRLPRPRPRPWNWPRP
shrunken log2 fold change: 0.0868

RRIRWRPPRLPRPRPRPHLFPRP
shrunken log2 fold change: 0.0795

RRIRIRPPRLPRPRPRPRMMPRP
shrunken log2 fold change: -0.293

RRIRKRPPRLPRPRPRPVLIPRP
shrunken log2 fold change: -0.141

RRIRERPPRLPRPRPRPCFNPRP
shrunken log2 fold change: -0.324

RRIRPRPPRLPRPRPRPDRMPRP
shrunken log2 fold change: -0.234

RRIRARPPRLPRPRPRPIKVPRP
shrunken log2 fold change: -0.104

RRIRCRPPRLPRPRPRPIRRPRP
shrunken log2 fold change: 0.119

RRIRERPPRLPRPRPRPANGPRP
shrunken log2 fold change: -0.042

RRIRCRPPRLPRPRPRPKFRPRP
shrunken log2 fold change: -0.375

RRIRTRPPRLPRPRPRPPSAPRP
shrunken log2 fold change: 0.442

RRIRQRPPRLPRPRPRPELTPRP
shrunken log2 fold change: 0.232

RRIRSRPPRLPRPRPRPLLGPRP
shrunken log2 fold change: 0.0218

RRIRMRPPRLPRPRPRPRPPPRP
shrunken log2 fold change: 1.55

RRIRFRPPRLPRPRPRPSFWPRP
shrunken log2 fold change: -0.0521

RRIRWRPPRLPRPRPRPHHWPRP
shrunken log2 fold change: 0.13

RRIRMRPPRLPRPRPRPFDWPRP
shrunken log2 fold change: 0.597

RRIRYRPPRLPRPRPRPTGKPRP
shrunken log2 fold change: 0.019

RRIRQRPPRLPRPRPRPSCWPRP
shrunken log2 fold change: 0.188

RRIRARPPRLPRPRPRPHFSPRP
shrunken log2 fold change: 0.0805

RRIRWRPPRLPRPRPRPLKRPRP
shrunken log2 fold change: 0.612

RRIRGRPPRLPRPRPRPSMQPRP
shrunken log2 fold change: 0.599

RRIRSRPPRLPRPRPRPWPTPRP
shrunken log2 fold change: 0.219

RRIRSRPPRLPRPRPRPWVDPRP
shrunken log2 fold change: -0.0314

RRIRRRPPRLPRPRPRPRMHPRP
shrunken log2 fold change: 0.516

RRIRLRPPRLPRPRPRPNMGPRP
shrunken log2 fold change: -0.25

RRIRCRPPRLPRPRPRPGVLPRP
shrunken log2 fold change: 0.121

RRIRSRPPRLPRPRPRPRDKPRP
shrunken log2 fold change: 0.0811

RRIRPRPPRLPRPRPRPPYIPRP
shrunken log2 fold change: -0.251

RRIRWRPPRLPRPRPRPWTCPRP
shrunken log2 fold change: 0.0612

RRIRSRPPRLPRPRPRPWFKPRP
shrunken log2 fold change: -0.504

RRIRHRPPRLPRPRPRPKIHPRP
shrunken log2 fold change: -0.393

RRIRHRPPRLPRPRPRPPMVPRP
shrunken log2 fold change: 0.0642

RRIRERPPRLPRPRPRPAYSPRP
shrunken log2 fold change: -0.0646

RRIRKRPPRLPRPRPRPIASPRP
shrunken log2 fold change: 0.0246

RRIRYRPPRLPRPRPRPNFYPRP
shrunken log2 fold change: -0.689

RRIRERPPRLPRPRPRPGLWPRP
shrunken log2 fold change: 0.168

RRIRDRPPRLPRPRPRPGWQPRP
shrunken log2 fold change: 0.22

RRIRKRPPRLPRPRPRPTLSPRP
shrunken log2 fold change: 0.0214

RRIRVRPPRLPRPRPRPQVSPRP
shrunken log2 fold change: 0.0417

RRIRYRPPRLPRPRPRPGIFPRP
shrunken log2 fold change: -0.708

RRIRFRPPRLPRPRPRPQEEPRP
shrunken log2 fold change: -0.0228

RRIRNRPPRLPRPRPRPDNTPRP
shrunken log2 fold change: -0.297

RRIRARPPRLPRPRPRPIAYPRP
shrunken log2 fold change: 0.21

RRIRKRPPRLPRPRPRPACAPRP
shrunken log2 fold change: 1

RRIRVRPPRLPRPRPRPQKHPRP
shrunken log2 fold change: -0.247

RRIRARPPRLPRPRPRPTNEPRP
shrunken log2 fold change: 0.344

RRIRIRPPRLPRPRPRPDHVPRP
shrunken log2 fold change: -0.23

RRIRLRPPRLPRPRPRPFQSPRP
shrunken log2 fold change: 0.0501

RRIRMRPPRLPRPRPRPPRKPRP
shrunken log2 fold change: 1.49

RRIRPRPPRLPRPRPRPSMMPRP
shrunken log2 fold change: -0.412

RRIRQRPPRLPRPRPRPIAYPRP
shrunken log2 fold change: -0.133

RRIRERPPRLPRPRPRPEWQPRP
shrunken log2 fold change: -0.0536

RRIRERPPRLPRPRPRPPFDPRP
shrunken log2 fold change: -0.0468

RRIRCRPPRLPRPRPRPYWIPRP
shrunken log2 fold change: -1.17

RRIRVRPPRLPRPRPRPWCKPRP
shrunken log2 fold change: 0.0335

RRIRLRPPRLPRPRPRPMQDPRP
shrunken log2 fold change: 0.0525

RRIRTRPPRLPRPRPRPTLAPRP
shrunken log2 fold change: 0.54

RRIRDRPPRLPRPRPRPSEYPRP
shrunken log2 fold change: -0.0118

RRIRNRPPRLPRPRPRPYLFPRP
shrunken log2 fold change: -0.541

RRIRLRPPRLPRPRPRPPRIPRP
shrunken log2 fold change: 0.0531

RRIRPRPPRLPRPRPRPPNWPRP
shrunken log2 fold change: 0.534

RRIRPRPPRLPRPRPRPTYEPRP
shrunken log2 fold change: 0.0844

RRIRRRPPRLPRPRPRPHEPPRP
shrunken log2 fold change: -0.0636

RRIRSRPPRLPRPRPRPEAPPRP
shrunken log2 fold change: 0.67

RRIRSRPPRLPRPRPRPRPLPRP
shrunken log2 fold change: 0.171

RRIRRRPPRLPRPRPRPAMEPRP
shrunken log2 fold change: 0.019

RRIRWRPPRLPRPRPRPKKVPRP
shrunken log2 fold change: 0.0465

RRIRKRPPRLPRPRPRPPRNPRP
shrunken log2 fold change: 0.671

RRIRIRPPRLPRPRPRPAIYPRP
shrunken log2 fold change: -0.00708

RRIRARPPRLPRPRPRPQKLPRP
shrunken log2 fold change: 0.298

RRIRMRPPRLPRPRPRPHNYPRP
shrunken log2 fold change: -0.0828

RRIRVRPPRLPRPRPRPGIFPRP
shrunken log2 fold change: -0.0463

RRIRIRPPRLPRPRPRPGGEPRP
shrunken log2 fold change: -0.063

RRIRKRPPRLPRPRPRPDIWPRP
shrunken log2 fold change: 0.211

RRIRIRPPRLPRPRPRPENNPRP
shrunken log2 fold change: -0.36

RRIRWRPPRLPRPRPRPWSIPRP
shrunken log2 fold change: -0.46

RRIRMRPPRLPRPRPRPCCPPRP
shrunken log2 fold change: -0.0946

RRIRLRPPRLPRPRPRPQNYPRP
shrunken log2 fold change: -0.626

RRIRPRPPRLPRPRPRPNIEPRP
shrunken log2 fold change: -0.294

RRIRGRPPRLPRPRPRPFYIPRP
shrunken log2 fold change: 0.0551

RRIRLRPPRLPRPRPRPINYPRP
shrunken log2 fold change: -0.857

RRIRRRPPRLPRPRPRPPFEPRP
shrunken log2 fold change: 0.61

RRIRQRPPRLPRPRPRPMIFPRP
shrunken log2 fold change: -0.0627

RRIRNRPPRLPRPRPRPKGKPRP
shrunken log2 fold change: 0.0351

RRIRERPPRLPRPRPRPRPVPRP
shrunken log2 fold change: 0.114

RRIRPRPPRLPRPRPRPVSTPRP
shrunken log2 fold change: 0.13

RRIRMRPPRLPRPRPRPSWCPRP
shrunken log2 fold change: 0.387

RRIRLRPPRLPRPRPRPNGYPRP
shrunken log2 fold change: -0.315

RRIRRRPPRLPRPRPRPLCWPRP
shrunken log2 fold change: 0.623

RRIRMRPPRLPRPRPRPICAPRP
shrunken log2 fold change: 0.486

RRIRCRPPRLPRPRPRPYCYPRP
shrunken log2 fold change: -0.669

RRIRVRPPRLPRPRPRPSAEPRP
shrunken log2 fold change: 0.299

RRIRVRPPRLPRPRPRPCSNPRP
shrunken log2 fold change: -0.411

RRIRVRPPRLPRPRPRPDWCPRP
shrunken log2 fold change: 0.0302

RRIRHRPPRLPRPRPRPHDMPRP
shrunken log2 fold change: -0.291

RRIRNRPPRLPRPRPRPCMLPRP
shrunken log2 fold change: -0.306

RRIRMRPPRLPRPRPRPTQQPRP
shrunken log2 fold change: 0.54

RRIRCRPPRLPRPRPRPDCHPRP
shrunken log2 fold change: -0.0697

RRIRMRPPRLPRPRPRPSISPRP
shrunken log2 fold change: 0.000307

RRIRYRPPRLPRPRPRPDKLPRP
shrunken log2 fold change: -0.0621

RRIRYRPPRLPRPRPRPHYHPRP
shrunken log2 fold change: -0.241

RRIRSRPPRLPRPRPRPFYDPRP
shrunken log2 fold change: -0.254

RRIRWRPPRLPRPRPRPSHNPRP
shrunken log2 fold change: -0.596

RRIRKRPPRLPRPRPRPGSWPRP
shrunken log2 fold change: 0.571
